The supplement of paper PMC10126150
± gives the standard deviation of the averaged measurements.

Test system: ATP
Experiment: switch fluorescence ratio, 500 uM ATP over buffer (Cy3 cluster intensity, sum of 5 cycles each) (fold (ratio)); higher = stronger signal-on switching upon ATP binding; sequences stand for … in TCGTCGGCAGCGTCAGATGTGTATAAGAGACAGTTTTTTTTTTTTTTTTTTTTTTTTT…TC
Conditions: aptamer strand: ATP DNA aptamer (quencher-CACCTGGGGGAGTATTGCGGAGGAAGG + anchor), 100 nM annealed; ATP concentration: 500 uM
How it was run: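 The fluorescence ratio divides summed target-cycle Cy3 intensity by summed buffer-cycle Cy3 intensity for each cluster and is averaged per switch-domain sequence. Cy3-labelled switching-strand clusters on a modified Illumina MiSeq flow-cell were annealed to 100 nM quencher-labelled ATP aptamer, then imaged in selection buffer and again after 15 min with 500 uM ATP at 22 °C. Five such cycles were run, with NaOH stripping and re-annealing between them, and clusters outside 100-1000 RFU were excluded.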
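Further: ATP exposure 15 min at 22 °C before imaging.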

## TTTTTCCCTT
  switch fluorescence ratio: 1.01 ± 0.034

## CGGAGTGGTT
  switch fluorescence ratio: 1 ± 0.017

## AGATGGAGGA
  switch fluorescence ratio: 0.99 ± 0.033

## AAGACGAATT
  switch fluorescence ratio: 1.01 ± 0.058

## CGAACTGAAG
  switch fluorescence ratio: 0.975 ± 0.026

## AAAATATGTG
  switch fluorescence ratio: 1.02 ± 0.062

## TTTCTCATTC
  switch fluorescence ratio: 1.08 ± 0.12

## GAGGTTATGC
  switch fluorescence ratio: 0.968 ± 0.04

## GTGGGTATTG
  switch fluorescence ratio: 1 ± 0.02

## ATTCTGTCGT
  switch fluorescence ratio: 1 ± 0.021

## TGGTTACATC
  switch fluorescence ratio: 1.04 ± 0.015

## TATTTTTAGC
  switch fluorescence ratio: 1 ± 0.03

## TGGGGGCCTT
  switch fluorescence ratio: 1.02 ± 0.053

## GATTGAAGCC
  switch fluorescence ratio: 0.962 ± 0.064

## ACAGGTTGTT
  switch fluorescence ratio: 1.03 ± 0.071

## CGTTTTGTGA
  switch fluorescence ratio: 1 ± 0.0054

## ATTGGGCATT
  switch fluorescence ratio: 1.018 ± 0.006

## GGAGAGGAAT
  switch fluorescence ratio: 1.01 ± 0.044

## TAGGTGGGTT
  switch fluorescence ratio: 0.982 ± 0.041

## TTGATTAAGC
  switch fluorescence ratio: 1.03 ± 0.043

## CTGGGTAATT
  switch fluorescence ratio: 1.04 ± 0.059

## GGAGGGTGCG
  switch fluorescence ratio: 1.011 ± 0.0064

## GCGGCTTCTC
  switch fluorescence ratio: 1.018 ± 0.0072

## TTAGTTTGGA
  switch fluorescence ratio: 0.959 ± 0.04

## TGGGATGTTT
  switch fluorescence ratio: 0.982 ± 0.026

## AATAATGTCG
  switch fluorescence ratio: 1.02 ± 0.06

## AAAGAGCAAT
  switch fluorescence ratio: 1.79 ± 1.1

## CAAGTAGGTC
  switch fluorescence ratio: 0.98 ± 0.061

## TGATTCTTCG
  switch fluorescence ratio: 1.01 ± 0.023

## AATTTAGCCG
  switch fluorescence ratio: 0.977 ± 0.077

## TAAGTTGGTT
  switch fluorescence ratio: 1.06 ± 0.014

## ATTGAGGTTT
  switch fluorescence ratio: 0.992 ± 0.022

## TAGGGTGTTT
  switch fluorescence ratio: 0.993 ± 0.034

## CCCGAAGTCT
  switch fluorescence ratio: 1.05 ± 0.012

## GGAAGTAGGA
  switch fluorescence ratio: 0.98839 ± 0.00067

## ATATATAGTC
  switch fluorescence ratio: 1.02 ± 0.025

## GTCTTTAGGG
  switch fluorescence ratio: 0.9755 ± 0.0055

## GATTATATGG
  switch fluorescence ratio: 1 ± 0.039

## TGTGGGAGGC
  switch fluorescence ratio: 1.04 ± 0.018

## CGGGGCAGAG
  switch fluorescence ratio: 0.991 ± 0.043

## AATAATTGGT
  switch fluorescence ratio: 1.01 ± 0.012

## AAGGAGGGAC
  switch fluorescence ratio: 0.982 ± 0.011

## AATCGTCTGG
  switch fluorescence ratio: 0.993 ± 0.019

## GTTTTTTGCT
  switch fluorescence ratio: 0.9809 ± 0.0051

## ATGGGGAGGT
  switch fluorescence ratio: 0.968 ± 0.025

## AGAAAAAATG
  switch fluorescence ratio: 0.974 ± 0.05

## TGGTAGAAGT
  switch fluorescence ratio: 0.988 ± 0.022

## AATAGGCAAT
  switch fluorescence ratio: 1.16 ± 0.034

## AGTCGAGTGG
  switch fluorescence ratio: 1.02 ± 0.047

## TAAAGAAAGG
  switch fluorescence ratio: 1.02 ± 0.013

## AGACAAAGA
  switch fluorescence ratio: 0.967 ± 0.022

## AGGGTCGGGA
  switch fluorescence ratio: 0.9838 ± 0.0013

## TTATGTGGGA
  switch fluorescence ratio: 0.975 ± 0.037

## AGACTCCACC
  switch fluorescence ratio: 1.398 ± 0.0081

## GAAATGGGGA
  switch fluorescence ratio: 1 ± 0.017

## AAACCAAACT
  switch fluorescence ratio: 1.34 ± 0.31

## CGTGGTATCA
  switch fluorescence ratio: 0.982 ± 0.077

## GAAGGTATCC
  switch fluorescence ratio: 1.02 ± 0.037

## TCTTATAGGG
  switch fluorescence ratio: 1 ± 0.042

## TATAAAGCGG
  switch fluorescence ratio: 1.03 ± 0.048

## TGTGTTATGG
  switch fluorescence ratio: 0.968 ± 0.049

## TGATTAAAGG
  switch fluorescence ratio: 1.02 ± 0.025

## CATGGGGGGG
  switch fluorescence ratio: 0.982 ± 0.043

## ACTTTAGGGA
  switch fluorescence ratio: 0.974 ± 0.019

## TTATCGAGGC
  switch fluorescence ratio: 1.06 ± 0.059

## CGGATGAGGG
  switch fluorescence ratio: 1.01 ± 0.044

## AGGATTTTTT
  switch fluorescence ratio: 1.003 ± 0.0094

## AATTACCAAA
  switch fluorescence ratio: 1.01 ± 0.072

## TGTTTTACTA
  switch fluorescence ratio: 0.986 ± 0.031

## GGGTTGGAAG
  switch fluorescence ratio: 1.02 ± 0.067

## TCCAGTGGAA
  switch fluorescence ratio: 0.989 ± 0.044

## GGGTTTAAGG
  switch fluorescence ratio: 1.02 ± 0.015

## CAAAAAGGAG
  switch fluorescence ratio: 0.994 ± 0.019

## CGGGGGCTAG
  switch fluorescence ratio: 0.996 ± 0.012

## CATGCCAGAT
  switch fluorescence ratio: 0.994 ± 0.028

## TGCGGTTTGA
  switch fluorescence ratio: 1.01 ± 0.012

## TTCGTAAGGG
  switch fluorescence ratio: 1.012 ± 0.01

## TTCGTATGTT
  switch fluorescence ratio: 1.03 ± 0.05

## TTATAACGTA
  switch fluorescence ratio: 1.07 ± 0.044

## GGCGGATCGA
  switch fluorescence ratio: 0.998 ± 0.063

## CAAGGGGGG
  switch fluorescence ratio: 0.977 ± 0.043

## TGGGCGCAGT
  switch fluorescence ratio: 0.986 ± 0.012

## TGATTTAATT
  switch fluorescence ratio: 0.97 ± 0.036

## TTTAGCATTT
  switch fluorescence ratio: 0.997 ± 0.014

## ATTATCTTCT
  switch fluorescence ratio: 0.994 ± 0.061

## CGTGACCTGT
  switch fluorescence ratio: 0.996 ± 0.022

## ACAGTAGGGA
  switch fluorescence ratio: 1.049 ± 0.0093

## CTGGCGAGCG
  switch fluorescence ratio: 1.03 ± 0.011

## AAGGCCCCGT
  switch fluorescence ratio: 1.02 ± 0.016

## TTTGAAGGAA
  switch fluorescence ratio: 0.986 ± 0.017

## CCAGTCGGAG
  switch fluorescence ratio: 0.9776 ± 0.0038

## CGTACCGGGT
  switch fluorescence ratio: 1.01 ± 0.022

## GGTATTTAGG
  switch fluorescence ratio: 1.02 ± 0.029

## AGTTGTTGTT
  switch fluorescence ratio: 0.981 ± 0.022

## CGGGGGTGGT
  switch fluorescence ratio: 1.01 ± 0.033

## CGGGATCCAC
  switch fluorescence ratio: 1.01 ± 0.034

## CTGGTAAATC
  switch fluorescence ratio: 1.02 ± 0.026

## TTGCCTGCAT
  switch fluorescence ratio: 1.011 ± 0.0092

## TAATCGGGGA
  switch fluorescence ratio: 0.984 ± 0.029

## TCGAAATCAC
  switch fluorescence ratio: 1.32 ± 0.046

## GTGCTTGGGG
  switch fluorescence ratio: 0.99 ± 0.044

## CTCGGGGGGT
  switch fluorescence ratio: 1.01 ± 0.014

## AGACTTTAAA
  switch fluorescence ratio: 1.01 ± 0.019

## CAGTAGGCCA
  switch fluorescence ratio: 1.01 ± 0.032

## CATTTCAGGA
  switch fluorescence ratio: 1.004 ± 0.0027

## AGGTTCTTTG
  switch fluorescence ratio: 0.974 ± 0.026

## TTTGGGTGGT
  switch fluorescence ratio: 1.09 ± 0.21

## CGGCGGAACG
  switch fluorescence ratio: 0.966 ± 0.031

## GCCGCGGGAA
  switch fluorescence ratio: 1 ± 0.051

## CTGGGGAGCT
  switch fluorescence ratio: 1.03 ± 0.05

## CTGGGGTACT
  switch fluorescence ratio: 1.08 ± 0.056

## TTTTTTTGCC
  switch fluorescence ratio: 1 ± 0.058

## TGGTCCACTG
  switch fluorescence ratio: 1.009 ± 0.0057

## ATGATTCTGT
  switch fluorescence ratio: 1 ± 0.021

## GTACTTGGGA
  switch fluorescence ratio: 1.04 ± 0.074

## TCTGAAACCG
  switch fluorescence ratio: 1.18 ± 0.12

## GGAAGAGGTG
  switch fluorescence ratio: 1.09 ± 0.022

## AAGTTGAAAA
  switch fluorescence ratio: 1.004 ± 0.0028

## CCAGCAGCGG
  switch fluorescence ratio: 1.12 ± 0.063

## TTTAGGTTCC
  switch fluorescence ratio: 1.015 ± 0.005

## GCAAAGGGCG
  switch fluorescence ratio: 1.03 ± 0.034

## ATGTAAGGGG
  switch fluorescence ratio: 0.9951 ± 0.0039

## GTGGATTGCG
  switch fluorescence ratio: 0.9975 ± 0.0075

## ATAGCAGGGG
  switch fluorescence ratio: 1.11 ± 0.082

## AATGCTCGGA
  switch fluorescence ratio: 0.981 ± 0.02

## ATGAACTAGG
  switch fluorescence ratio: 0.991 ± 0.022

## CGCTTTATGA
  switch fluorescence ratio: 1.07 ± 0.024

## AGTAGGGCAG
  switch fluorescence ratio: 0.9976 ± 0.006

## TAGAGGGTAC
  switch fluorescence ratio: 1.19 ± 0.24

## AGGTTTGGAC
  switch fluorescence ratio: 1.09 ± 0.17

## GTATGTATTT
  switch fluorescence ratio: 0.986 ± 0.021

## ATCTAGCAAC
  switch fluorescence ratio: 1.36 ± 0.049

## AGGAGGTTGT
  switch fluorescence ratio: 0.976 ± 0.017

## GATTGCTCGT
  switch fluorescence ratio: 0.975 ± 0.028

## GGATGGTTTC
  switch fluorescence ratio: 1.01 ± 0.023

## CCGTAGAGGG
  switch fluorescence ratio: 1.38 ± 0.043

## AAAAGCCGGT
  switch fluorescence ratio: 1.02 ± 0.034

## TCCGGGGTAA
  switch fluorescence ratio: 1.37 ± 0.51

## CGATCTGCTC
  switch fluorescence ratio: 1.06 ± 0.025

## CGGCGCTTCA
  switch fluorescence ratio: 1.063 ± 0.0061

## TTGATCGGTT
  switch fluorescence ratio: 1.002 ± 0.00027

## GCAAGTGGTG
  switch fluorescence ratio: 1.02 ± 0.03

## TGGAATAGAA
  switch fluorescence ratio: 1.01 ± 0.02

## AGAAGATGCT
  switch fluorescence ratio: 0.9797 ± 0.0088

## TTAACCAAGA
  switch fluorescence ratio: 0.9755 ± 0.0022

## TCATTGTGGG
  switch fluorescence ratio: 0.9799 ± 0.00084

## AGATGAATTC
  switch fluorescence ratio: 0.982 ± 0.036

## TGGGGATTCC
  switch fluorescence ratio: 1.01 ± 0.016

## GCTTTTGGCA
  switch fluorescence ratio: 1.019 ± 0.0057

## GGTACTTGTA
  switch fluorescence ratio: 1 ± 0.016

## TAGGCACGCG
  switch fluorescence ratio: 1.027 ± 0.01

## GATGTATGGG
  switch fluorescence ratio: 0.984 ± 0.015

## CGGATGTAAC
  switch fluorescence ratio: 1.02 ± 0.024

## AACACCAGGT
  switch fluorescence ratio: 1.38 ± 0.45

## GGGGGGGATG
  switch fluorescence ratio: 0.991 ± 0.029

## CGATTTCAGG
  switch fluorescence ratio: 1.02 ± 0.036

## GTAGGGACCG
  switch fluorescence ratio: 0.909 ± 0.025
